Here are results for two molecules from US10864251B2, “Peptides of syndecan-1 for inhibiting angiogenesis” (Wisconsin Alumni Research Foundation, priority 2006, dated 2020).

For assay [1], the system named is segments of mouse aorta. The class given is cell-based. The conditions noted are these: for block of VEGF-induced outgrowth: 50 ng/ml VEGF, 7 days. The procedure: FIG. 12—SSTN blocks aortic ring angiogenesis. Aortic segments were explanted to collagen gels for 7 days in the presence of 50 ng/ml vascular endothelial cell growth factor (VEGF), or 30 ng/ml FGF-2 in the presence or absence of mS1ED or SSTN. Total outgrowth in quantified as the total length of all microvessels.
To test the activity of SSTN as an anti-angiogenic agent, the inventors turned to the in vitro aortic ring outgrowth assay and the in vivo corneal angiogenesis model. The aortic outgrowth assay allows quantification of microvessel outgrowth from segments of mouse aorta explanted to type I collagen gels. As was found when examining the mouse aortic endothelial cell line in culture, both syndecan-1 and the αvβ3 and αvβ5 integrins appear present even on the resting mouse aorta (FIG. 11A). In addition, microvessels growing out from the aortic explant over a 7 days period in response to FGF stain positively for syndecan-1, with appears co-expressed with the αvβ3 and αvβ5 integrins (FIG. 11B). To extend this finding of syndecan-1 expression in activated endothelium, the inventors also examined two models of mouse breast tumor formation. Tumors derived from wnt-1 overexpression in the mammary gland show a high degree of vascularization, identified as internal networks lined by a thick cell layer than stains intensely for syndecan-1 and for PECAM (CD31), indicative of activated endothelium (FIG. 11C). In fact, syndecan-1 expression in these cells swamps out the positive staining for syndecan-1 seen in the mammary epithelial cells, which are known to be positive for syndecan-1. These same cell layers as positive for αv, β3 and β5 integrin subunits. A similar finding is seen in tumors arising from overexpression of β-catenin (FIG. 11C). Although the vascularization is not as extensive as in the […] tumors, there are clear thickened layers of cells that are PECAM, syndecan-1 and αvβ3/αvβ5 integrin positive in these mammary tumors.
To test the effect of SSTN on microvessel outgrowth, segments of thoracic aorta were explanted to collagen gels in the presence of either 50 ng/ml vascular endothelial cell growth factor (VEGF) or 30 ng/ml FGF-2, and incubated in the presence of either recombinant mS1ED or SSTN. Although some vessel outgrowth is observed in the absence of exogenous angiogenic agents, likely due to VEGF release by supporting cells growing out from the explant, the outgrowth is greatly (≥10-fold) increased by FGF or VEGF (FIG. 12). Addition of recombinant mS1ED blocks VEGF-induced outgrowth by more than 70% at 10 μM, and greater than 95% at 30 μM. FGF induced outgrowth requires slightly higher inhibitory concentrations (approximately 30 μM mS1ED for 70% inhibition), which may trace to a difference in susceptibility of the two integrins, as VEGF signaling is reportedly coupled to αvβ5 integrin activation and FGF signaling is coupled to αvβ3 activation. […] It should be noted that the microvessel outgrowth is accompanied by the outgrowth of support cells, most likely smooth muscle cells and fibroblasts. […] Thus, the effects of SSTN are highly localized to the vascular endothelial cells.

Assay [2] deals with human dermal microvascular endothelial cells (HMEC-1). The class given is cell-based. The procedure:
FIGS. 6A-6H—Inhibition of B82L fibroblast and HMEC-1 cell attachment and spreading on VN by synstatin82-130. B82L fibroblasts, which rely on the αvβ5 integrin for attachment to VN, and human dermal microvascular endothelial cells, which rely on both the αvβ3 and αvβ5 integrins for attachment to VN, were plated in the absence of peptide (FIGS. 6A, 6E) or in the presence of 0.1 (FIGS. 6B, 6F), 0.3 (FIGS. 6C, 6G) or 1 μM (FIGS. 6D, 6H) synstatin82-130 for 2 hr and processed as described in FIG. 2.
FIGS. 10A-10D—Dependence of HMEC cell attachment and spreading on integrin activation by Sdc1 and its inhibition by SSTN. (FIG. 10A) HMECs were plated for 2 hr either on Sdc1-specific antibody B-B4 to engage Sdc1 or on VN (10 μg/ml coating concentration) to engage the αvβ3 and αvβ5 integrins. Blocking antibodies LM609 (10 μg/ml, specific for αvβ3) and P1F6 (10 μg/ml, specific for αvβ5), SSTN (0.5 μM) or recombinant mouse Sdc1 ectodomain (mS1ED, 5 μM) were added. The ligand mimetic antibody WOW1 was used to detect activated αvβ3 integrin on cells plated on B-B4. (FIG. 10B) HMECs were treated with siRNA oligo specific for human Sdc1 for 48 hr prior to plating on VN. Sdc1 expression was quantified by flow cytometry using human Sdc1-specific mAb B-B4 or a control mouse IgG. (FIG. 10C-10D) The percentage of cell attaching or attaching and spreading was quantified for HMECs, HAEC and MAECs plated on VN for 24 hr in the presence of mS1ED or SSTN, or after siRNA silencing of Sdc1 expression in the presence of mAb LM609 to block αvβ3 integrin, P1F6 to block αvβ5 integrin, or both antibodies.
FIG. 14—Activity of SSTN peptides. A diagram of SSTN82-130 used in our experiments is shown. The gray letters designate amino acids that are identical or highly conserved across species (mouse, human, rat, hamster). Shorter peptides have been tested using HMEC-1 endothelial cells for inhibition of […] mediated cell attachment and spreading in comparison to SSTN82-130.
Cell adhesion and spreading assays were performed with modification to the previous procedures (Lebakken and Rapraeger, 1996. Briefly, human plasma vitronectin or fibronectin at 10-30 μg/ml were applied to nitrocellulose-coated ten well slides (Erie Scientific) and incubated for 1-2 h at 37° C. Slides were blocked with 1.0% heat-denatured bovine serum albumin for a minimum of 30 min at 37° C. Cells were detached from the substratum using 5 mM EDTA in Tris-buffered saline and resuspended in HEPES-buffered culture medium containing 0.1% heat-denatured BSA. Cells were plated at a density of 15,000 cells per well and allowed to attach and spread for 2 h prior to fixation in 4% paraformaldehyde in CMF-PBS. For fluorescence microscopy, fixed cells were permeabilized in 0.2% Triton X-100, labeled with rhodamine-conjugated phalloidin and analyzed using fluorescence microscopy. For testing inhibition by recombinant mScd-1ED and synstatin82-130, cells were pre-incubated 10 min before plating in the presence of the inhibitor. […] LM609 was used as a specific block to αvβ3 and P1F6 was used as a specific blocker of αvβ5.
Finally, the inventors have examined HMEC-1 cells, which are immortalized human dermal microvascular endothelial cells. Microvascular endothelial cells are regarded as being the main source of endothelial cells that carry out angiogenesis in vivo. The HMEC-1 cells grown in serum-containing culture medium express Sdc1 (as noted earlier) and also express active αvβ3 and αvβ5 integrins. […]

Assay [3] deals with B82L fibroblasts. To be noted: B82L cells; McQuade et al., 2006; read-out: IC50, recognition of VN; cited from earlier work.

Read-outs that look alike come from different tables or passages of the source. Where no end group is shown, it is not given here.

As to “SNTETAFTSVLPAGEKPEEGEPVLHVEAEPGFTARDKEKEVTTRPRETV [synstatin82-130]”, the IC50 in assay [1] is 100 nM; in assay [2] (6 h), about 100 nM.

B1: S1ED: recombinant mouse Sdc1 ectodomain (amino acids 18-251), expressed in bacteria as GST fusion or 6×His-tagged protein (protein)
chain: QPALPQIVAVNVPPEDQDGSGDDSDNFSGSGTGALPDTLSRQTPSTWKDVWLLTATPTAPEPTSSNTETAFTSVLPAGEKPEEGEPVLHVEAEPGFTARDKEKEVTTRPRETVQLPITQRASTVRVTTAQAAVTSHPHGGMQPGLHETSAPTAPGQPDHQPPRVEGGGTSVIKEVVEDGTANQLPAGEGSGEQDFTFETSGENTAVAAVEPGLRNQPPVDEGATGASQSLLDRK
modifications: left off: a dimerising Fc or GST
notes: recombinant mouse Sdc1 ectodomain (amino acids 18-251), expressed in bacteria as GST fusion or 6×His-tagged protein
Consider B1, for which the “concentration for 70% inhibition of FGF induced outgrowth” value in assay [1] (30 ng/ml FGF-2, 7 days) is on record as “approximately 30 μM”. Further, the “block of VEGF-induced outgrowth” value in assay [1] (10 μM) is recorded as “more than 70%”; in assay [1] (30 μM), “greater than 95%”. Also, the “outgrowth of support cells (non-endothelial)” value in assay [1] (aortic ring explants) is given as “unaffected”. Further, the IC50 is 3 to 10 µM in assay [3]; 3000 to 10000 nM in assay [2] (HMEC-1, αvβ3 and αvβ5 integrin-dependent, read-out: IC50, spreading on VN). Further, the “reduction of cell spreading” value in assay [2] (HMECs on vitronectin, 1-3 μM) is listed as 80-90%. In addition, the spreading on vitronectin result in assay [2] (HMECs, 5.0 μM) is “blocks spreading as effectively as the combined antibody treatment”.
